Experimental data from patent publication US20240209100A1 (DIAGONAL THERAPEUTICS, published 2024).

Key:
[1] = biological target: T1, IL-18 receptor (IL-18Rα/IL-18Rβ) overexpressed on HEK-Blue IL-18 cells (Homo sapiens (Human), UniProt Q13478 19-541; O95256 20-599); test: cell-based or functional assay
T1 sequence 1: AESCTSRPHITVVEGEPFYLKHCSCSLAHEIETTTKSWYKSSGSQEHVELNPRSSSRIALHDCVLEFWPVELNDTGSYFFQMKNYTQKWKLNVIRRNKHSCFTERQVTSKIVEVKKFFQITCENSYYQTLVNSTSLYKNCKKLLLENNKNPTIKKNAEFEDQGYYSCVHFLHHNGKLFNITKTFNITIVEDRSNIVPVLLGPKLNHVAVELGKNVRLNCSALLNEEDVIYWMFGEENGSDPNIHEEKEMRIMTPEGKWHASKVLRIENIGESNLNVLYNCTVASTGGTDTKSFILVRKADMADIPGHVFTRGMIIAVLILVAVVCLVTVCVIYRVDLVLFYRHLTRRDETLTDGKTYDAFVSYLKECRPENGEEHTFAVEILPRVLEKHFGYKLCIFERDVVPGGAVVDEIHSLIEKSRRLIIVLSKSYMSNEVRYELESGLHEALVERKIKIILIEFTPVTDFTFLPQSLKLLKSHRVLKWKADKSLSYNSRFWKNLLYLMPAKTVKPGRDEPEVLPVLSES
T1 sequence 2: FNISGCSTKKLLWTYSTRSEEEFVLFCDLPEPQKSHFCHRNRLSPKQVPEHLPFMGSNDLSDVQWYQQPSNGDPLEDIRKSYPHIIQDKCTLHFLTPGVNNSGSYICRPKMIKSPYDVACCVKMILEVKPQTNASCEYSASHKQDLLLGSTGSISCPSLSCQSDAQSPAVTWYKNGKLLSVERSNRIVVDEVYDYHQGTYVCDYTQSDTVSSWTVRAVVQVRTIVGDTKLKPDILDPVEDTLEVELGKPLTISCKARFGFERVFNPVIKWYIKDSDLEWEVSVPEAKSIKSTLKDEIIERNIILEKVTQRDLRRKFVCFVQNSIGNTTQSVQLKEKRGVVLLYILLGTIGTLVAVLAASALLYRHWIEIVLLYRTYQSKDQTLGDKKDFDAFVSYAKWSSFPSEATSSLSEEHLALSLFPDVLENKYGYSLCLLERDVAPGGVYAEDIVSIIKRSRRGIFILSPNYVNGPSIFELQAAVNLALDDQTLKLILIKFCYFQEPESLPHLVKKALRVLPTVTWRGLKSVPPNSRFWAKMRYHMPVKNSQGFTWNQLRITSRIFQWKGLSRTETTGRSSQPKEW

[2] = biological target: T1, IL-18 receptor (IL-18Rα/IL-18Rβ) …; test: cell-based or functional assay; remark: listed apart in the source

HEK-Blue IL-18: Abs 405 at 100 nM [1]: 2.6 Abs
HEK-Blue IL-18: Fold over Background [1]: 11.4 fold
EC50 (read off the curve), HEK Blue IL-18 SEAP reporter [2]: ~0.5 nM
B1: DGL207 (bispecific antibody)
heavy 1: QVQLVESGGGLVQAGGSLRLSCAASGRTFSKHAMGWFRQAPGKEREFVAAIDWSGGSTYYADSVKGRFTISRDNAKNTVYLQMDSLKPEDTAVYYCAADSYTDYAQLWLPELESEYDYWGQGTLVTVSSCPPCPAPEAAGAPSVFLFPPKPKDTLMISRTPEVTCVVVDVSHEDPEVKFNWYVDGVEVHNAKTKPREEQYNSTYRVVSVLTVLHQDWLNGKEYKCKVSNKALPAPIEKTISKAKGQPREPQVCTLPPSRDELTKNQVSLSCAVKGFYPSDIAVEWESNGQPENNYKTTPPVLDSDGSFFLVSKLTVDKSRWQQGNVFSCSVMHEALHNHYTQKSLSLSPGWSHPQFEK
heavy 2: QLQLVESGGGLVQAGGSLRLSCAASRSITFSHNVMGWYRQAPGKQRELVASIGSGGSTNYVDSVKGRATISRDNAKKTVYLQMNSLKPEDTAVYYCGVVVGVYRGSLGQGTLVTVSSCPPCPAPEAAGAPSVFLFPPKPKDTLMISRTPEVTCVVVDVSHEDPEVKFNWYVDGVEVHNAKTKPREEQYNSTYRVVSVLTVLHQDWLNGKEYKCKVSNKALPAPIEKTISKAKGQPREPQVYTLPPCRDELTKNQVSLWCLVKGFYPSDIAVEWESNGQPENNYKTTPPVLDSDGSFFLYSKLTVDKSRWQQGNVFSCSVMHEALHNHYTQKSLSLSPGEPEA
